Assay results reported in patent US20260217793A1 (Chugai, published 2026).

Columns and labels:
[1] = biological target: T1, FcγRIIa type H extracellular domain with C-terminal His tag (human, UniProt P12318 34-217); experiment: SPR
T1 sequence (looked up): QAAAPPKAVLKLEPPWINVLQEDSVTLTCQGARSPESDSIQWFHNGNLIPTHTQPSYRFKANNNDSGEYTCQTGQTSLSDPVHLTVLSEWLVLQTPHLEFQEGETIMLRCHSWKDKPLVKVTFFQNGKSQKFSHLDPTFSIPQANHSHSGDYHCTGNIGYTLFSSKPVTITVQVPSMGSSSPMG

[2] = biological target: FcγRIIIa type V extracellular domain with C-terminal His tag (human, UniProt P08637 17-208); experiment: SPR
Sequence of FcγRIIIa type V extracellular domain with C-terminal His tag (P08637 17-208 F176V): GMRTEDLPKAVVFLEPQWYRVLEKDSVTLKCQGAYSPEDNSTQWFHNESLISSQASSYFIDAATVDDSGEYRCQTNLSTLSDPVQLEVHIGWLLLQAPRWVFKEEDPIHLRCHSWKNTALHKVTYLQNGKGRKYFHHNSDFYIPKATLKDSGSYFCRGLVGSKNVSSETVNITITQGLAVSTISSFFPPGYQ

[3] = biological target: T2, FcγRIIa type R extracellular domain with C-terminal His tag (human, UniProt P12318 34-217); experiment: ratio of SPR KDs vs IL6R-B3/IL6R-L
T2 sequence (looked up): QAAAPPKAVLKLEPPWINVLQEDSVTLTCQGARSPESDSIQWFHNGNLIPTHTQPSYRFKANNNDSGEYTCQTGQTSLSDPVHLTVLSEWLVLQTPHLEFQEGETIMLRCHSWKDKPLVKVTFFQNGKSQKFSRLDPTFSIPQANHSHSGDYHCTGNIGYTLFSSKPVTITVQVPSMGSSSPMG

[4] = biological target: T3, FcγRIIb extracellular domain with C-terminal His tag (human, UniProt P31994 43-217); experiment: ratio of SPR KDs vs IL6R-B3/IL6R-L
T3 sequence (looked up): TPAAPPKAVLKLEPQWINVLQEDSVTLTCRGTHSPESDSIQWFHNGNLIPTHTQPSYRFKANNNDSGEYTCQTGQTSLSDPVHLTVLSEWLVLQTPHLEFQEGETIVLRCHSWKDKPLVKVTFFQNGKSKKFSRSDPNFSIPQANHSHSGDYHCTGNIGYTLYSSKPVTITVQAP

[5] = biological target: T3, FcγRIIb extracellular domain with …; experiment: ratio of SPR KDs, FcγRIIaH over FcγRIIb, same variant
[6] = biological target: T3, FcγRIIb extracellular domain with …; experiment: ratio of SPR KDs, FcγRIIaR over FcγRIIb, same variant
[7] = biological target: T4, human FcγRIIa type H (His131) extracellular domain with C-terminal His tag (human, UniProt P12318 34-217); experiment: SPR
T4 sequence (looked up): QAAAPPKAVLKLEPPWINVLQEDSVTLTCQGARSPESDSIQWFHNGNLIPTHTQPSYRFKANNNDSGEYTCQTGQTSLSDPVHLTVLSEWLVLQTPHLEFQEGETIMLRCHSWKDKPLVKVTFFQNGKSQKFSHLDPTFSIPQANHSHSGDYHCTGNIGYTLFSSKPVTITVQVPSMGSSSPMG

[8] = biological target: human FcγRIIIa type V (Val158) extracellular domain with C-terminal His tag (human, UniProt P08637 17-208); experiment: SPR
Sequence of human FcγRIIIa type V (Val158) extracellular domain with C-terminal His tag (P08637 17-208 F176V): as the sequence (P08637 17-208 F176V) above

Kd [1] [µM]	Kd [2] [µM]	KD (IIaR) of parent polypeptide/KD (IIaR) of altered polypeptide [3]	KD (IIb) of parent polypeptide/KD (IIb) of altered polypeptide [4]	KD (IIaH)/KD (IIb) [5]	KD (IIaR)/KD (IIb) [6]	Kd [7] [µM]	Kd [8] [µM]	Binder
9.7	39							IL6R-BP230/IL6R-L (antibody, human IgG1, kappa) heavy: QVQLQESGPGLVKPSETLSLTCAVSGHSISHDHAWSWVRQPPGEGLEWIGFISYSGITNYNPSLQGRVTISRDNSKNTLYLQMNSLRAEDTAVYYCARSLARTTAMDYWGEGTLVTVSSASTKGPSVFPLAPSSKSTSGGTAALGCLVKDYFPEPVTVSWNSGALTSGVHTFPAVLQSSGLYSLSSVVTVPSSSLGTQTYICNVNHKPSNTKVDKKVEPKSCDKTHTCPPCPAPDLLGDDSVFLFPPKPKDTLMISRTPEVTCVVVDVSDEDGEVKFNWYVDGVEVHNAKTKPREEQDNSTYRVVSVLTVLHQDWLNGKEYKCKVSNKALPRPIEKTISKAKGQPREPQVYTLPPSRDELTKNQVSLTCLVKGFYPSDIAVEWESNGQPENNYKTTPPVLDSDGSFFLYSKLTVDKSRWQQGNVFSCSVMHEALHNHYTQESLSLSP light: not shown
		1.2	55.5	268	16.1			IL6R-BP479/IL6R-L (antibody, human IgG1, kappa) heavy: QVQLQESGPGLVKPSETLSLTCAVSGHSISHDHAWSWVRQPPGEGLEWIGFISYSGITNYNPSLQGRVTISRDNSKNTLYLQMNSLRAEDTAVYYCARSLARTTAMDYWGEGTLVTVSSASTKGPSVFPLAPSSKSTSGGTAALGCLVKDYFPEPVTVSWNSGALTSGVHTFPAVLQSSGLYSLSSVVTVPSSSLGTQTYICNVNHKPSNTKVDKKVEPKSCDKTHTCPPCPAPDLLGDDSVFLFPPKPKDTLMISRTPEVTCVVIDLAEEDGEVKFNWYVDGVEVHNAKTKPREEQYNSTYRVVSVLTVLHQDWLNGKEYKCKVSNKALPAPIEKTISKAKGQPREPQVYTLPPSRDELTKNQVSLTCLVKGFYPSDIAVEWESNGQPENNYKTTPPVLDSDGSFFLYSKLTVDKSRWQQGNVFSCSVMHEALHNHYTQESLSLSP light: not shown
		2.8	160	350	20.5			IL6R-BP481/IL6R-L (antibody, human IgG1, kappa) heavy: QVQLQESGPGLVKPSETLSLTCAVSGHSISHDHAWSWVRQPPGEGLEWIGFISYSGITNYNPSLQGRVTISRDNSKNTLYLQMNSLRAEDTAVYYCARSLARTTAMDYWGEGTLVTVSSASTKGPSVFPLAPSSKSTSGGTAALGCLVKDYFPEPVTVSWNSGALTSGVHTFPAVLQSSGLYSLSSVVTVPSSSLGTQTYICNVNHKPSNTKVDKKVEPKSCDKTHTCPPCPAPDLLGDDSVFLFPPKPKDTLMISRTPEVTCVVIDVAEEDGEVKFNWYVDGVEVHNAKTKPREEQYNSTYRVVSVLTVLHQDWLNGKEYKCKVSNKALPAPIEKTISKAKGQPREPQVYTLPPSRDELTKNQVSLTCLVKGFYPSDIAVEWESNGQPENNYKTTPPVLDSDGSFFLYSKLTVDKSRWQQGNVFSCSVMHEALHNHYTQESLSLSP light: not shown
		1.4	67.8	241	17.1			IL6R-BP484/IL6R-L (antibody, human IgG1, kappa) heavy: QVQLQESGPGLVKPSETLSLTCAVSGHSISHDHAWSWVRQPPGEGLEWIGFISYSGITNYNPSLQGRVTISRDNSKNTLYLQMNSLRAEDTAVYYCARSLARTTAMDYWGEGTLVTVSSASTKGPSVFPLAPSSKSTSGGTAALGCLVKDYFPEPVTVSWNSGALTSGVHTFPAVLQSSGLYSLSSVVTVPSSSLGTQTYICNVNHKPSNTKVDKKVEPKSCDKTHTCPPCPAPDLLGDDSVFLFPPKPKDTLMISRTPEVTCVVVDVAEDDGEVKFNWYVDGVEVHNAKTKPREEQYNSTYRVVSVLTVLHQDWLNGKEYKCKVSNKALPAPIEKTISKAKGQPREPQVYTLPPSRDELTKNQVSLTCLVKGFYPSDIAVEWESNGQPENNYKTTPPVLDSDGSFFLYSKLTVDKSRWQQGNVFSCSVMHEALHNHYTQESLSLSP light: not shown
		22.3	2120	685	33.8			IL6R-BP499/IL6R-L (antibody, human IgG1, kappa) heavy: QVQLQESGPGLVKPSETLSLTCAVSGHSISHDHAWSWVRQPPGEGLEWIGFISYSGITNYNPSLQGRVTISRDNSKNTLYLQMNSLRAEDTAVYYCARSLARTTAMDYWGEGTLVTVSSASTKGPSVFPLAPSSKSTSGGTAALGCLVKDYFPEPVTVSWNSGALTSGVHTFPAVLQSSGLYSLSSVVTVPSSSLGTQTYICNVNHKPSNTKVDKKVEPKSCDKTHTCPPCPAPDLLGDDSVFLFPPKPKDTLMISRTPEVTCVVIDVAEEDGEVKFNWYVDGVEVHNAKTKPREEQDNSTYRVVSVLTVLHQDWLNGKEYKCKVSNKALPRPIEKTISKAKGQPREPQVYTLPPSRDELTKNQVSLTCLVKGFYPSDIAVEWESNGQPENNYKTTPLVLDSDGSFFLYSKLTVDKSRWQQGNVFSCSVMHEALHNHYTQESLSLSP light: not shown
9.7	43							IL6R-BP542/IL6R-L (antibody, human IgG1, kappa) heavy: QVQLQESGPGLVKPSETLSLTCAVSGHSISHDHAWSWVRQPPGEGLEWIGFISYSGITNYNPSLQGRVTISRDNSKNTLYLQMNSLRAEDTAVYYCARSLARTTAMDYWGEGTLVTVSSASTKGPSVFPLAPSSKSTSGGTAALGCLVKDYFPEPVTVSWNSGALTSGVHTFPAVLQSSGLYSLSSVVTVPSSSLGTQTYICNVNHKPSNTKVDKKVEPKSCDKTHTCPPCPAPDLLGDDSVFLFPPKPKDTLMISRTPEVTCVVVDVSDEDGEVKFNWYVDGVEVHNAKTKPREEQFNSTYRVVSVLTVLHQDWLNGKEYKCKVSNKALPRPIEKTISKAKGQPREPQVYTLPPSRDELTKNQVSLTCLVKGFYPSDIAVEWESNGQPENNYKTTPPVLDSDGSFFLYSKLTVDKSRWQQGNVFSCSVMHEALHNHYTQESLSLSP light: not shown
9.1	45							IL6R-BP545/IL6R-L (antibody, human IgG1, kappa) heavy: QVQLQESGPGLVKPSETLSLTCAVSGHSISHDHAWSWVRQPPGEGLEWIGFISYSGITNYNPSLQGRVTISRDNSKNTLYLQMNSLRAEDTAVYYCARSLARTTAMDYWGEGTLVTVSSASTKGPSVFPLAPSSKSTSGGTAALGCLVKDYFPEPVTVSWNSGALTSGVHTFPAVLQSSGLYSLSSVVTVPSSSLGTQTYICNVNHKPSNTKVDKKVEPKSCDKTHTCPPCPAPDLLGDDSVFLFPPKPKDTLMISRTPEVTCVVVDVSDEDGEVKFNWYVDGVEVHNAKTKPREEQDNSTYRVVSVLTVLHQDWLNGKEYKCKVSNKALPRPIEKTISKAKGQPREPQVYTLPPSREELTKNQVSLTCLVKGFYPSDIAVEWESNGQPENNYKTTPPVLDSDGSFFLYSKLTVDKSRWQQGNVFSCSVMHEALHNHYTQESLSLSP light: not shown
7.5	35							IL6R-BP547/IL6R-L (antibody, human IgG1, kappa) heavy: QVQLQESGPGLVKPSETLSLTCAVSGHSISHDHAWSWVRQPPGEGLEWIGFISYSGITNYNPSLQGRVTISRDNSKNTLYLQMNSLRAEDTAVYYCARSLARTTAMDYWGEGTLVTVSSASTKGPSVFPLAPSSKSTSGGTAALGCLVKDYFPEPVTVSWNSGALTSGVHTFPAVLQSSGLYSLSSVVTVPSSSLGTQTYICNVNHKPSNTKVDKKVEPKSCDKTHTCPPCPAPDLLGDDSVFLFPPKPKDTLMISRTPEVTCVVVDVSDEDGEVKFNWYVDGVEVHNAKTKPREEQDNSTYRVVSVLTVLHQDWLNGKEYKCKVSNKALPRPIEKTISKAKGQPREPQVYTLPPSRDELTKNQVSLTCLVKGFYPSDIAVEWESNGQPENNYKTTPPVLDSDGSFFLYSRLTVDKSRWQQGNVFSCSVMHEALHNHYTQESLSLSP light: not shown
						15	29	IL6R-BP557/IL6R-L (antibody, human IgG1, kappa) heavy: QVQLQESGPGLVKPSETLSLTCAVSGHSISHDHAWSWVRQPPGEGLEWIGFISYSGITNYNPSLQGRVTISRDNSKNTLYLQMNSLRAEDTAVYYCARSLARTTAMDYWGEGTLVTVSSASTKGPSVFPLAPSSKSTSGGTAALGCLVKDYFPEPVTVSWNSGALTSGVHTFPAVLQSSGLYSLSSVVTVPSSSLGTQTYICNVNHKPSNTKVDKKVEPKSCDKTHTCPPCPAPELLGDDSVFLFPPKPKDTLMISRTPEVTCVVVDVGDEDGEVKFNWYVDGVEVHNAKTKPREEQDNSTYRVVSVLTVLHQDWLNGKEYKCKVSNKALPRPIEKTISKAKGQPREPQVYTLPPSRDELTKNQVSLTCLVKGFYPSDIAVEWESNGQPENNYKTTPPVLDSDGSFFLYSKLTVDKSRWQQGNVFSCSVMHEALHNHYTQESLSLSP light: not shown
